Experiment: Electrophoretic mobility by capillary zone electrophoresis
Type: physicochemical
Conditions: for Electrophoretic Mobility (Average) / Electrophoretic Mobility: 32° C.
Description: Since electrophoretic mobility (ie, the ability of a drug/agent to migrate in an electric field) is an important aspect of electrotransport drug delivery, the electrophoretic mobility of the drug/agent being delivered is predictive of suitability for transdermal electrotransport delivery. Electrophoretic mobility measurements were performed using a capillary zone electrophoresis instrument (model 2100 P/ACE instrument, Beckman Instruments, Inc., Palo Alto, Calif.). At acid pH values DB-WAX, DB-1, DB-17 (J&W Scientific, Folsom, Calif.) capillary columns were used either with 50 or 100 micron internal diameter column and CElect H75 (Supelco, Bellefonte, Pa.) capillary column with a 75 micron internal diameter. At alkaline pH values uncoated silica capillaries of length 57 cm with an internal diameter of 75 microns were used with an applied voltage of 20 kV. If any electroosmotic flow was present, it was detected using a neutral marker such as 0.01% benzyl alcohol (SIGMA, St. Louis, Mo.) or 1/500 mesityl oxide (Applied Biosystems, Foster City, Calif.). The optimum voltage was determined by doing an Ohm's Law test on each buffer and capillary system. The temperature of the capillary columns was set at 32° C. and a two second pressure injection was done. A UV detector was used to monitor peptide and markers at either 214 or 280 nm.
Voltage injection had to be used for the 27 cm length column. The voltage applied varied depending on the capillary length.
The following equation was used to determine electrophoretic mobility μ. [formula]
If the electroosmotic flow is detected, the following equation can be used.
μpeptide =μtotal -μneutral marker
The measurement procedures described above were conducted on an aqueous solution of the protein insulinotropin, with TWEEN® 20 (MW=1126 g/mol) as the surfactant, with the following modifications. The insulinotropin donor solution concentration was 0.12 mg/mL. One test was run in 10 mM sodium borate at pH 9.0 and another test in 10 mM sodium chloroacetate at pH 3.5.
Fractional changes (%δ) are defined as the difference between the reading at a given surfactant concentration (Ec) minus the reading at zero surfactant (E0), the quantity divided by the difference between the reading at saturated surfactant concentration (Es) minus the reading at zero surfactant (E0), i. e. %δ=(Ec -E0)/(Es-E0).
The measurement procedures described earlier were conducted in this example on an aqueous solution containing insulinotropin as the agent and dodecyl trimethyl ammonium chloride (DTAC) as the ionic surfactant with the following modifications. […]
The same measurement procedures were conducted using an aqueous solution of salmon calcitonin as the agent and the zwitterionic dodecyl sulfobetaine as the surfactant with the following modifications. The temperature was initially 32° C., the surfactant concentration was varied up to 30 mM, and the calcitonin concentration was 0.06 to 0.08 mM. Tables 7, 8, and 9 below provide the results obtained in terms of polypeptide ellipticity expressed as a function of zwitterionic surfactant concentration at pH 3.5 in 12 mM sodium chloroacetate (Table 7), 5.0 in 4 mM piperazine HCI (Table 8), and 6.5 in 15 mM sodium cacodylate (Table 9), respectively. Table 8, in addition, provides the results obtained on electrophoretic mobility and HIC retention time in a phenyl superose column at pH 5.0.

[1] = pH 3.5, 10 mM sodium chloroacetate, TWEEN 20 0
[2] = pH 3.5, 10 mM sodium chloroacetate, TWEEN 20 0.133 mM
[3] = pH 3.5, 10 mM sodium chloroacetate, TWEEN 20 0.266 mM
[4] = pH 3.5, 10 mM sodium chloroacetate, TWEEN 20 0.515 mM
[5] = pH 3.5, 10 mM sodium chloroacetate, TWEEN 20 1.00 mM
[6] = pH 3.5, 10 mM sodium chloroacetate, TWEEN 20 2.28 mM
[7] = pH 3.5, 10 mM sodium chloroacetate, TWEEN 20 4.44 mM
[8] = pH 9.0, 10 mM sodium borate, TWEEN 20 0
[9] = pH 9.0, 10 mM sodium borate, TWEEN 20 0.133 mM
[10] = pH 9.0, 10 mM sodium borate, TWEEN 20 0.266 mM
[11] = pH 9.0, 10 mM sodium borate, TWEEN 20 0.515 mM
[12] = pH 9.0, 10 mM sodium borate, TWEEN 20 1.00 mM
[13] = pH 9.0, 10 mM sodium borate, TWEEN 20 2.28 mM
[14] = pH 9.0, 10 mM sodium borate, TWEEN 20 4.44 mM
[15] = pH 9.0, 10 mM sodium borate, TWEEN 20 8.88 mM
[16] = pH 9.0, 10 mM sodium borate, TWEEN 20 13.3 mM
[17] = pH 9.0, 10 mM sodium borate, TWEEN 20 20.0 mg/mL
[18] = pH 9.0, 10 mM sodium borate, TWEEN 20 25.0 mg/mL

For “Insulinotropin: the protein insulinotropin”, the “Electrophoretic Mobility (Average)” value (pH 3.5, 10 mM sodium chloroacetate, DTAC 0) was 1.80 cm^2 /V-s × 10^-4, the “Electrophoretic Mobility (Average)” value (pH 3.5, 10 mM sodium chloroacetate, DTAC 0.83 mM) was 1.82 cm^2 /V-s × 10^-4 and the “Electrophoretic Mobility (Average)” value (pH 3.5, 10 mM sodium chloroacetate, DTAC 1.64 mM) was 1.81 cm^2 /V-s × 10^-4. For the same substance, the “Electrophoretic Mobility (Average)” value (pH 3.5, 10 mM sodium chloroacetate, DTAC 20.0 mM) was 3.46 cm^2 /V-s × 10^-4, the “Electrophoretic Mobility (Average)” value (pH 3.5, 10 mM sodium chloroacetate, DTAC 25.0 mM) was 3.33 cm^2 /V-s × 10^-4 and the “Electrophoretic Mobility” value [1] was -1.8 cm^2 /Vs ×10^-4. The “Electrophoretic Mobility” value [2] was -1.72 cm^2 /Vs ×10^-4, the “Electrophoretic Mobility” value [3] was -1.58 cm^2 /Vs ×10^-4 and the “Electrophoretic Mobility” value [4] was -1.32 cm^2 /Vs ×10^-4. The “Electrophoretic Mobility” value [5] was -1.14 cm^2 /Vs ×10^-4, the “Electrophoretic Mobility” value [6] was -1.08 cm^2 /Vs ×10^-4 and the “Electrophoretic Mobility” value [7] was -1.01 cm^2 /Vs ×10^-4. For the same substance, the “Electrophoretic Mobility, fractional change (% δ)” value [1] was 0, the “Electrophoretic Mobility, fractional change (% δ)” value [2] was 0.10 and the “Electrophoretic Mobility, fractional change (% δ)” value [3] was 0.28. The “Electrophoretic Mobility, fractional change (% δ)” value [4] was 0.61, the “Electrophoretic Mobility, fractional change (% δ)” value [5] was 0.84 and the “Electrophoretic Mobility, fractional change (% δ)” value [6] was 0.91. For the same substance, the “Electrophoretic Mobility, fractional change (% δ)” value [7] was 1.00, the “Electrophoretic Mobility” value [8] was -1.06 cm^2 Vs × 10^-4 and the “Electrophoretic Mobility” value [9] was -1.05 cm^2 Vs × 10^-4. The “Electrophoretic Mobility” value [10] was -1.01 cm^2 Vs × 10^-4, the “Electrophoretic Mobility” value [11] was -1.00 cm^2 Vs × 10^-4 and the “Electrophoretic Mobility” value [12] was -0.89 cm^2 Vs × 10^-4. For the same substance, the “Electrophoretic Mobility” value [13] was -0.73 cm^2 Vs × 10^-4, the “Electrophoretic Mobility” value [14] was -0.62 cm^2 Vs × 10^-4 and the “Electrophoretic Mobility” value [15] was -0.61 cm^2 Vs × 10^-4. The “Electrophoretic Mobility” value [16] was -0.55 cm^2 Vs × 10^-4, the “Electrophoretic Mobility” value [17] was -0.58 cm^2 Vs × 10^-4 and the “Electrophoretic Mobility” value [18] was -0.53 cm^2 Vs × 10^-4. For the same substance, the “Electrophoretic Mobility, fractional change (% δ)” value [8] was 0, the “Electrophoretic Mobility, fractional change (% δ)” value [9] was 0.02 and the “Electrophoretic Mobility, fractional change (% δ)” value [10] was 0.09. For the same substance, the “Electrophoretic Mobility, fractional change (% δ)” value [11] was 0.11, the “Electrophoretic Mobility, fractional change (% δ)” value [12] was 0.32 and the “Electrophoretic Mobility, fractional change (% δ)” value [13] was 0.62. For the same substance, the “Electrophoretic Mobility, fractional change (% δ)” value [14] was 0.83, the “Electrophoretic Mobility, fractional change (% δ)” value [15] was 0.85 and the “Electrophoretic Mobility, fractional change (% δ)” value [16] was 0.96. The “Electrophoretic Mobility, fractional change (% δ)” value [17] was 0.91 and the “Electrophoretic Mobility, fractional change (% δ)” value [18] was 1.00.

In the case of Salmon Calcitonin [reference compound], the “Electrophoretic Mobility” value (pH 5.0, 4 mM piperazine-HCl, dodecyl sulfobetaine 0, calcitonin 0.076 mM) is reported as 2.4 × 10^-4 cm^2 /V-sec, the “Electrophoretic Mobility” value (pH 5.0, 4 mM piperazine-HCl, dodecyl sulfobetaine 0.83 mM, calcitonin 0.076 mM) is reported as 2.3 × 10^-4 cm^2 /V-sec and the “Electrophoretic Mobility” value (pH 5.0, 4 mM piperazine-HCl, dodecyl sulfobetaine 1.64 mM, calcitonin 0.075 mM) is reported as 2.2 × 10^-4 cm^2 /V-sec. The “Electrophoretic Mobility” value (pH 5.0, 4 mM piperazine-HCl, dodecyl sulfobetaine 3.23 mM, calcitonin 0.074 mM) was 2.2 × 10^-4 cm^2 /V-sec, the “Electrophoretic Mobility” value (pH 5.0, 4 mM piperazine-HCl, dodecyl sulfobetaine 6.25 mM, calcitonin 0.072 mM) was 1.7 × 10^-4 cm^2 /V-sec and the “Electrophoretic Mobility” value (pH 5.0, 4 mM piperazine-HCl, dodecyl sulfobetaine 7.69 mM, calcitonin 0.071 mM) was 1.5 × 10^-4 cm^2 /V-sec. The “Electrophoretic Mobility” value (pH 5.0, 4 mM piperazine-HCl, dodecyl sulfobetaine 9.77 mM, calcitonin 0.069 mM) was 1.6 × 10^-4 cm^2 /V-sec, the “Electrophoretic Mobility” value (pH 5.0, 4 mM piperazine-HCl, dodecyl sulfobetaine 12.4 mM, calcitonin 0.067 mM) was 1.4 × 10^-4 cm^2 /V-sec and the “Electrophoretic Mobility” value (pH 5.0, 4 mM piperazine-HCl, dodecyl sulfobetaine 18.4 mM, calcitonin 0.062 mM) was 0.96 × 10^-4 cm^2 /V-sec. For the same substance, the “Electrophoretic Mobility” value (pH 5.0, 4 mM piperazine-HCl, dodecyl sulfobetaine 26.4 mM, calcitonin 0.056 mM) was 0.88 × 10^-4 cm^2 /V-sec.
